The experiment concerns the target GST (glutathione S-transferase) released from the GST-P fusion protein (S. japonicum). In words: SEC.

As to “GST (glutathione S-transferase) released from the GST-P fusion protein (natural protein)”, the stoichiometry N was 2.

As usually defined, the stoichiometry N is the number of molecules, sites or subunits per partner or assembly.
